In PMC6431553:
Like-named read-outs stand apart in the source and are kept apart here.

Columns and labels:
[1] = biological target: recombinant murine PrP 23–231 (murine) (UniProt P04925); experiment: ELISA
[2] = biological target: recombinant murine PrP 23–231 (murine) (UniProt P04925); experiment: ELISA; remark: listed apart in the source

Chain of UniProt P04925 (P04925 23-231): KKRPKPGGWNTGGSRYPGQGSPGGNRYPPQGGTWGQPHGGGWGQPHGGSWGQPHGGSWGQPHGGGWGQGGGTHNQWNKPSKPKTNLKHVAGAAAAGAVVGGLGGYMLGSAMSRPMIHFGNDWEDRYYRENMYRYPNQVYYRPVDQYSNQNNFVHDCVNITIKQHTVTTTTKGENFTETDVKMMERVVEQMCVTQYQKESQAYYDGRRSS

Substance | EC50 [1] | EC50 [2]
Aβ1–42 fibrils (peptide) | 1730 nM | 
Aβ-derived diffusible ligands (ADDLs), a preparation of Aβ1–42 (peptide) | 234 nM | 113 nM
